Experimental findings from the nanobody polyreactivity screen of Harvey et al. (2022) are described below.

The data set is described as follows: yeast display, Sf9 membrane polyspecificity reagent, FACS + sequencing; frameworks hold sequencing errors. Summed up: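 After 36–48 hours of galactose induction, yeast (Saccharomyces cerevisiae BJ5465) displaying a synthetic nanobody library were stained at 4 °C for 1 hour with 10% biotinylated, detergent-solubilized Sf9 membrane reagent. Streptavidin microbeads enriched the stained cells before FACS sorting into low and high (top ~1%) gates on anti-HA and streptavidin fluorescence. Each clone's polyreactivity label reflects its gate of origin.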
For “QVQLVESGGGLVQAGGSLRLSCAASGFTFSWYAMGWSRQAPGKERELVAGISYSGTRTFYADSVKGRFTISRDNAKNTVYLQMNSLTPEDTAVYYCAAVVPGRTVLQPEYDYWGQGTQVTVSS”, the “polyreactivity (PSR sort gate)” value is on record as “low polyreactivity”. Consider “QVQLVESGGGLVQAGGSLRLSCAASGFTFSWYAMGWYRQAPGKERELVAAINADGGTTYYADSVKGRFTISRDNAKNTVYLQMNSLKPEDTAVYYCAVPYPYGYEYDHWGQGTQVTVSS”, for which the “polyreactivity (PSR sort gate)” value was “low polyreactivity”. With “QVQLVESGGGLVQAGGSLRLSCAASGFTFSWYAMGWYRQAPGKERELVAAITRSGGSTNYADSVKGRFTISRDNAKNTVYLQMNSLKPEDTAVYYCNAAGYRRSTWWYDYWGQGTQVTVSS”, the “polyreactivity (PSR sort gate)” value was “high polyreactivity”.

Regarding “QVQLVESGGGLVQAGGSLRLSCAASGFTFSYNAMGWYRQAPGKERELVAAISSGGRTHYADSVKGRFTISRDNAKNTVYLQMNILKPEDTAVYYCNAQKYPRYSRTSGRNYNYWGQGTQVTVSS”, the “polyreactivity (PSR sort gate)” value is “high polyreactivity”. As for “QVQLVESGGGLVQAGGSLRLSCAASGFTFSYYAMGWYRQAPGKERELVAAISWSGGSTYSADSVKGRFTISRDNAKNTVYLQMNSLKPEDTAVYYCAAEVYFLATGTWYDYWGQGTQVTVSS”, the entry is “high polyreactivity”; as for “QVQLVESGGGLVQAGGSLRLSCAASGFTFSYYAMGWYRQAPGKERELVAAITSGGSTYYADSVKGRFTISRDNAKNTVYLQMNSLKPEDTAVYYCNARGYGTLNVRRERMDYWGQGTQVTVSS”, “high polyreactivity”. Regarding “QVQLVESGGGLVQAGGSLRLSCAASGFTFSYYDMGWYRQAPGKERELVAAISSSASRTYYADSVKGRFTISRDNAKNTVYLQMNSLKPEDTAVYYCAARYSESRTGHLDYWGQGTQVTVSS”, the “polyreactivity (PSR sort gate)” value is reported as “high polyreactivity”. As for “QVQLVESGGGLVQAGGSLRLSCAASGFTFSYYGMGWNIQAPRKERELVPALTRSGTNTYYADSVKGRFTISRDNAKNTVYLQMKSLKPEDTAVFYCNADVAWSGYHDWYWSSEDYWGQGTQVTVSS”, the entry is “low polyreactivity”; as for “QVQLVESGGGLVQAGGSLRLSCAASGFTFTDYAMGWYRQAPGKERELVAAISGIGGSTYYADSVKGRFTISRDNAKNTVYLQMNSLKPEDTAVYYCAAELTKWRFWGLHDSWGQGTQVTVSS”, “high polyreactivity”; as for “QVQLVESGGGLVQAGGSLRLSCAASGFTFTDYAMGWYRRAPGKESELVAAISSGGSTNYADSVKGRFTISRDNAKNTVYLQMNSLKPEDTAVYYCAAYYVYRAPVRYEYWGQGTQVTVSS”, “high polyreactivity”. Consider “QVQLVESGGGLVQAGGSLRLSCAASGFTFTDYTMGWYRQAPGKEREFVAAISYRGSNTYYADSVKGRFTISRDNAKNTVYLQMNSLKPEDTAVYYCAADSYRYKYNYWGQGTQVTVSS”, for which the “polyreactivity (PSR sort gate)” value was “high polyreactivity”.

Regarding “QVQLVESGGGLVQAGGSLRLSCAASGFTFTGNAMVWYRQAPGKERELVAAIRGSGGSTYYADSVKGRFTISRDNAKNTVNLQMKSLKPDVTAVYYCATYYIRNKGFDYWGQGTQVTVSS”, the “polyreactivity (PSR sort gate)” value is recorded as “high polyreactivity”.

Regarding “QVQLVESGGGLVQAGGSLRLSCAASGFTFTGYAMGWYRQAPGKERELVAAISHDGGSTYYADSVKGRFTISRDNAKNTVYLQMNSLKPEDTAVYYCAAAFRAAGRTVRYYWGQGTQVTVSS”, the “polyreactivity (PSR sort gate)” value is reported as “high polyreactivity”. The entry for “QVQLVESGGGLVQAGGSLRLSCAASGFTFTGYAMGWYRQAPGKERELVAALTRGGGSTYYADSVKGRFTISRDNAKNTVYLQMNSLKPEDTAVYYCAAQRSRLIRISSPYYGHDYWGQGTQVTVSS” is “low polyreactivity”; for “QVQLVESGGGLVQAGGSLRLSCAASGFTFTLYAMGWYRQAPGKERELVAAISWNGSTYYADSVKGRFTISRDNAKNTVYLQMNSLKPEDTAVYYCNADVWISYNNAYVTLDYWGQGTQVTVSS” it is “high polyreactivity”. As for “QVQLVESGGGLVQAGGSLRLSCAASGFTFTPNAMGWYRQAPGKERELVAAITWNGGTTYYADSVKGRFTISRDNAKNTVYLQMNSLKPEDTAVYYCNADGLILYDYWGQGTQVTVSS”, the entry is “low polyreactivity”; as for “QVQLVESGGGLVQAGGSLRLSCAASGFTFTRYAMGRYRQAPGKERELGATITKRGGSTYYADSVKGRFTISRDNAKNTVYLQLNSLKPEDTAVYFCAARNVRTYVTGVDYDYWGQGTQVTVSS”, “high polyreactivity”; as for “QVQLVESGGGLVQAGGSLRLSCAASGFTFTRYAMGWYRQAPGKERELVAAISRIGGSTYYADSVKGRFTISRDNAKNTVYLQMNSLKPEDTAVYYCAAYKVPSYDYWGQGTQVTVSS”, “high polyreactivity”. The entry for “QVQLVESGGGLVQAGGSLRLSCAASGFTFTSYAMGWYRQAPGKERELVAAINRSGGSTTYADSEKGRFTISRDNAKNTVYLQMNSLKPEDTAVYYCAKAFRGHYWGQGTQVTVSS” is “high polyreactivity”; for “QVQLVESGGGLVQAGGSLRLSCAASGFTFTSYTMGWYRQAPGKERELVAGISTNGGTTYYADSVKGRFTISRDNAKNTVYLQMNSLKPEDTAVYYCNAKRKYGRFPKKYYYWGQGTQVTVSS” it is “high polyreactivity”; for “QVQLVESGGGLVQAGGSLRLSCAASGFTFTVYAMGWYRQAPGQERELVATISRSAGRTYYADSVKGRFTISRDNAKNTVYLQMNSLKPEDTPVYYCNAAYGNGYTGGFDNWGQGTQVTVSS” it is “high polyreactivity”. Consider “QVQLVESGGGLVQAGGSLRLSCAASGFTFTWYAMGWYRQAPGKERELVATISRSGGRTYYADSVKGRFTISRDNAKNTVYLQLNSLKPEDTAVYYCAADTRNYPRYDYWGQGTQVTVSS”, for which the “polyreactivity (PSR sort gate)” value is “high polyreactivity”.

“QVQLVESGGGLVQAGGSLRLSCAASGFTFTYYAMGWYRQAPGKERELVAAISSSGGRTYYADSVKGRFTISRDNAKNTVYLQMNSLKPEDTAVYYCAARSVSATPDFHYWGQGTQVTVSS”: the “polyreactivity (PSR sort gate)” value is on record as “high polyreactivity”. As for “QVQLVESGGGLVQAGGSLRLSCAASGFTFVINDMGWYRQAPGTERELVADITSGGDTYYADSVKGRFTISRDNAKNTDYLQLNSLKPEDTAVYYCAADIYPDWIYLLYGYWGQGTQVTVSS”, the entry is “low polyreactivity”. As for “QVQLVESGGGLVQAGGSLRLSCAASGFTFVKNAMGWYRQAPGKERELVAAITGSAGRTYYADSVKGRFTISRANAKNTVYLQMNSLKPEDTAVYYCNVYYGYFRSRYGYWGQGTQVTVSS”, the entry is “high polyreactivity”. The entry for “QVQLVESGGGLVQAGGSLRLSCAASGFTFVNYAMGWYRQAPGKERELVAAIRRSGSRTYYADSVKGRFTISRDNAKNTVYLQINSLKPEDTAVYYCGAVCYRLYGYWGQGTQVTVSS” is “low polyreactivity”.

Turning to “QVQLVESGGGLVQAGGSLRLSCAASGFTFVNYAMGWYRQAPWKERELVAAIRRSGSRTYYADSVKGRFTISRDIAKNTVYLQMNCLNPEDTAVYYCAAVWYRLYGYWGQGTQVTVSS”, the “polyreactivity (PSR sort gate)” value is “low polyreactivity”.

“QVQLVESGGGLVQAGGSLRLSCAASGFTFVPYAMGWYRQAPGKERETNADSVKGRFTISRDNAKNTVYLQMNSLKPEDTAVYYCAAGGYGPYDYWGQGTQVTVSS”: the “polyreactivity (PSR sort gate)” value was “low polyreactivity”.

Take “QVQLVESGGGLVQAGGSLRLSCAASGFTFVRNTMGWYRQAPGKERELVAAISRSGGSTYYADSVKGRFTISRDNAKNTVYLQMYSLKPEDTAVYYCNAYRYVHYDWGQGSQVTVSS”: the “polyreactivity (PSR sort gate)” value was “high polyreactivity”. As for “QVQLVESGGGLVQAGGSLRLSCAASGFTFVRNTMGWYRQATGKERELVAAISRSGGSTYYADSVKGRFTISRDNAKNTVYFKIYSLKPEDSAVYYCNAYRYVHYDWGHGTQVTVSS”, the entry is “high polyreactivity”; as for “QVQLVESGGGLVQAGGSLRLSCAASGFTFVRNTMGWYRQPPGKETELVAAINRSGGNTYYADSVKGRFTISRDNAKNTVYLQMNCLKPEDTAVYYCAADGFGRRDYYYWGQGTQVTVSS”, “high polyreactivity”; as for “QVQLVESGGGLVQAGGSLRLSCAASGFTFVRYAMGWYRKAPGKERELVAAISGSGDRTYYADSVKGRFTISRDNAKNTVYLQMNSLKPEDTAVYYCAKKSLGARHTGRYNYWGQGTQVTVSS”, “high polyreactivity”.

Take “QVQLVESGGGLVQAGGSLRLSCAASGFTFVRYAMGWYRQAPGKEREFVASISARGGNTFYADSVKGRFTISRDNAKNTVYLQMNSLKPEDTAVYYCAKRGPYGTGYGYWGQGTQVTVSS”: the “polyreactivity (PSR sort gate)” value was “high polyreactivity”. The entry for “QVQLVESGGGLVQAGGSLRLSCAASGFTFVRYAMGWYRQAPGKERELVAAISRRGGSTYYADSVKGRFTISRDNAKNTVYLQMNSLKPEDTAVYYCAARAPYRRVRMNYWGQGTQVTVSS” is “high polyreactivity”; for “QVQLVESGGGLVQAGGSLRLSCAASGFTFVRYAMGWYRQAPGKERELVAVISRSGGSTNYADSVKGRFTISRDNAKNTVYLQMNSLKAEDTAVYYCNVVVKGAWDYYPYDYWGQGTQVTVSS” it is “high polyreactivity”; for “QVQLVESGGGLVQAGGSLRLSCAASGFTFVRYVMGWSRQAPGKERELVAAISRSGGSTHYADSVKGRFTISRDNAKNTVYLQMNSLKPEDTAVYYCAAASPRWPGQGDYWGQGTQVTVSS” it is “high polyreactivity”.

With “QVQLVESGGGLVQAGGSLRLSCAASGFTFVSNALGWYRQAPGKETELVADITSDGSTNYADSVKGRFSISRDNAKNTVYLQMNSLKPEDTAVYYCATDQRSHTWVNQFDYWGLGTQVTVSS”, the “polyreactivity (PSR sort gate)” value is listed as “low polyreactivity”. As for “QVQLVESGGGLVQAGGSLRLSCAASGFTFVSNDMGWYRQAPGKERELVAVITTGDTSTSYADSVKGRFTISRDNAKNTVYLQMNSLKPEDTAVYYCAADPHDTVRHDALVELEYWGQGTQVTVSS”, the entry is “low polyreactivity”; as for “QVQLVESGGGLVQAGGSLRLSCAASGFTFVSYAMGWYRQAPGKERELVAAISRSGGTTYYADSVKGRFTISRDNAKNTGYFQMNSLKPEDTAVYYCAADFYVFYTRYYYWGQGTQVTVSS”, “low polyreactivity”. The entry for “QVQLVESGGGLVQAGGSLRLSCAASGFTFVSYAMGWYRQAPGKERELVATITSDGSTNYADSVKGRFTISRDNAKNTVYLQMNSLKPEDTAVYYCAADIHYYPGYLAYDYWGQGTQVTVSS” is “low polyreactivity”. Regarding “QVQLVESGGGLVQAGGSLRLSCAASGFTFVTNAMGWYRQAPGKERELVAAISRRGGSTYYADSVKGRFTISRDIAKNTVNLEMNSLKPEDTAVYYCNADRQRRRQFSFSSPYDYWGQGTLVTVSS”, the “polyreactivity (PSR sort gate)” value was “high polyreactivity”.
